Reference: article PMC12270679 (2025)

Target: Unp-CTD (Saccharomyces cerevisiae, synthetic peptide, N-terminal FAM label, unphosphorylated; consensus RNAPII Rpb1 CTD heptad x3)
Assay: FP; unphosphorylated CTD peptide

B1: MBP-Asr1 (natural protein)
chain: MEECPICLADDQEGEQFGCLNVCGHKFHLNCIREWHKYSINLKCPICRVESTHLEVGEGQHALSINLKMGFMIKNAIDYVGAETTNERNEDDTGEQDQEIEFLSERLRGTLVMDTIKIIQCSICGDTDVSRLSLYCQDCEAIYHETCLRGLACEVGDRNTWQECTDCRSNALLELRMGAISSQLASYDSRNSMIFAGELRDKHSVKTQQMYEQIRNAKHKIQMHVRRALDRYPLPLLRFKDAYKHVNKQVSRKLYRLSDNKYLPDQYDYDSLARTGVHTELLIYCHDE
B1 showed a Kd of 4.06 mM.
